Laboratory results: patent publication US20240091374A1 (AbbVie / Abbott, published 2024)

Target: T1, Seizure-related homolog 6 (SEZ6) (UniProt Q53EL9 20-994, limits assumed)
T1 sequence (looked up): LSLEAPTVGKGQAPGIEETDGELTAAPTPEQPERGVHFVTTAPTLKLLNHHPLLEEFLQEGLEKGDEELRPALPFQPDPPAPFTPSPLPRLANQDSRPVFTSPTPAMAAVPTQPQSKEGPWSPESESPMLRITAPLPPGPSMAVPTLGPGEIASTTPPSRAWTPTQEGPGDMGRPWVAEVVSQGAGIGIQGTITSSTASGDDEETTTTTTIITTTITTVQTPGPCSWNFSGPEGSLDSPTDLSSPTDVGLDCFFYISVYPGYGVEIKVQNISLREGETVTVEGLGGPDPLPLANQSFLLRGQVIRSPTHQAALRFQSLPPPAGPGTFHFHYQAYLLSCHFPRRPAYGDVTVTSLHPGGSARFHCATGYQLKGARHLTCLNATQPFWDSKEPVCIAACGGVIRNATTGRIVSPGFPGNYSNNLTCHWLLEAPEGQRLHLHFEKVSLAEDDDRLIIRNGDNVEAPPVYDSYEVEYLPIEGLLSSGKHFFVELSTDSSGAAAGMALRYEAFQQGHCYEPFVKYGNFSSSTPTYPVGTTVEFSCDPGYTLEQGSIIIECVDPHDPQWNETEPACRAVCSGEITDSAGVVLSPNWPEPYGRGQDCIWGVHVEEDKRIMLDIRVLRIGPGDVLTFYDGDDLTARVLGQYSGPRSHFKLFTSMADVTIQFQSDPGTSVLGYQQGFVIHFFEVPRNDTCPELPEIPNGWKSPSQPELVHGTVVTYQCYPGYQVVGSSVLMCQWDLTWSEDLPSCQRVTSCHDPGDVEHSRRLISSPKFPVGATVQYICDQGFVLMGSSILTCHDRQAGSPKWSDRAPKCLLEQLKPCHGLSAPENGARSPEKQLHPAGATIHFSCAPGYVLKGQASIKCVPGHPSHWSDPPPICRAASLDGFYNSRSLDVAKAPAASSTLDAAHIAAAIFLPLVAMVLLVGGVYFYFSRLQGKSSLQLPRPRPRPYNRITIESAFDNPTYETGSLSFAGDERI
Test: cell-based or functional assay

B1: ADC-1 (anti-SEZ6 antibody Ab conjugated to TOP1i linker drug LD1, formula (IV), DAR about 6) (antibody, V domains shown)
VH: EVQLVQSGAEVKKPGESLKISCKGSGYSFTSSWINWVRQMPGKGLEWMGRIYPGEGDTNYNGNFEGQVTISADKSISTAYLQWSSLKASDTAMYYCTRGLVMDYWGQGTLVTVSS
VL: EIVLTQSPATLSLSPGERATLSCRASQSVDYNGISYMHWYQQKPGQAPRLLIYAASNVQSGIPARFSGSGSGTDFTLTISSLEPEDFAVYYCQQSIEDPPTFGGGTKVEIKR
modifications: linker drug LD1 (Example 1J, formula (III)) on sulfhydryl groups of cysteine residues after global reduction; positions not given; linker drug LD1 (Example 1J, formula (III)) on sulfhydryl groups of cysteine residues after global reduction; DAR of about 6 over the whole antibody, predominant species n = 6; positions not given
growth inhibitory IC50, CellTiter-Glo cell viability, 10 days, COR-L95 cells (SEZ6 mRNA positive): 0.33 nM | growth inhibitory IC50, CellTiter-Glo cell viability, 10 days, NCI-H146 cells (SEZ6 mRNA positive): 0.05 nM | growth inhibitory IC50, CellTiter-Glo cell viability, 10 days, NCI-H524 cells (SEZ6 mRNA positive): 0.33 nM | growth inhibitory IC50, CellTiter-Glo cell viability, 10 days, NCI-H526 cells (SEZ6 mRNA positive): 0.1 nM | growth inhibitory IC50, CellTiter-Glo cell viability, 10 days, NCI-H1963 cells (SEZ6 mRNA positive): 4.63 nM | growth inhibitory IC50, CellTiter-Glo cell viability, 10 days, row without a cell line label below COR-L95 (taken as a second COR-L95 value): 0.29 nM
